# Laboratory results as given in article PMC6677139.
# B1: Gud1 (Saccharomyces cerevisiae S288C) (protein)
# chain: MTKSDLLFDKFNDKHGKFLVFFGTFVDTPKLGELRIREKTSVGVLNGIIRFVNRNSLDPVKDCLDHDSSLSPEDVTVVDIIGKDKTRNNSFYFPGFVDTHNHVSQYPNVGVFGNSTLLDWLEKYTFPIEAALANENIAREVYNKVISKTLSHGTTTVAYYNTIDLKSTKLLAQLSSLLGQRVLVGKVCMDTNGPEYYIEDTKTSFESTVKVVKYIRETICDPLVNPIVTPRFAPSCSRELMQQLSKLVKDENIHVQTHLSENKEEIQWVQDLFPECESYTDVYDKYGLLTEKTVLAHCIHLTDAEARVIKQRRCGISHCPISNSSLTSGECRVRWLLDQGIKVGLGTDVSAGHSCSILTTGRQAFAVSRHLAMRETDHAKLSVSECLFLATMGGAQVLRMDETLGTFDVGKQFDAQMIDTNAPGSNVDMFHWQLKEKDQMQEQEQEQGQDPYKNPPLLTNEDIIAKWFFNGDDRNTTKVWVAGQQVYQI
# B2: EcGuaD (Escherichia coli K-12) (protein)
# chain: MMSGEHTLKAVRGSFIDVTRTIDNPEEIASALRFIEDGLLLIKQGKVEWFGEWENGKHQIPDTIRVRDYRGKLIVPGFVDTHIHYPQSEMVGAYGEQLLEWLNKHTFPTERRYEDLEYAREMSAFFIKQLLRNGTTTALVFGTVHPQSVDALFEAASHINMRMIAGKVMMDRNAPDYLLDTAESSYHQSKELIERWHKNGRLLYAITPRFAPTSSPEQMAMAQRLKEEYPDTWVHTHLCENKDEIAWVKSLYPDHDGYLDVYHQYGLTGKNCVFAHCVHLEEKEWDRLSETKSSIAFCPTSNLYLGSGLFNLKKAWQKKVKVGMGTDIGAGTTFNMLQTLNEAYKVLQLQGYRLSAYEAFYLATLGGAKSLGLDDLIGNFLPGKEADFVVMEPTATPLQQLRYDNSVSLVDKLFVMMTLGDDRSIYRTYVDGRLVYERN
# B3: EcGuaD (Escherichia coli K-12; F210A) (protein)
# chain: MMSGEHTLKAVRGSFIDVTRTIDNPEEIASALRFIEDGLLLIKQGKVEWFGEWENGKHQIPDTIRVRDYRGKLIVPGFVDTHIHYPQSEMVGAYGEQLLEWLNKHTFPTERRYEDLEYAREMSAFFIKQLLRNGTTTALVFGTVHPQSVDALFEAASHINMRMIAGKVMMDRNAPDYLLDTAESSYHQSKELIERWHKNGRLLYAITPRAAPTSSPEQMAMAQRLKEEYPDTWVHTHLCENKDEIAWVKSLYPDHDGYLDVYHQYGLTGKNCVFAHCVHLEEKEWDRLSETKSSIAFCPTSNLYLGSGLFNLKKAWQKKVKVGMGTDIGAGTTFNMLQTLNEAYKVLQLQGYRLSAYEAFYLATLGGAKSLGLDDLIGNFLPGKEADFVVMEPTATPLQQLRYDNSVSLVDKLFVMMTLGDDRSIYRTYVDGRLVYERN
# B4: EcGuaD (Escherichia coli K-12; A386S) (protein)
# chain: MMSGEHTLKAVRGSFIDVTRTIDNPEEIASALRFIEDGLLLIKQGKVEWFGEWENGKHQIPDTIRVRDYRGKLIVPGFVDTHIHYPQSEMVGAYGEQLLEWLNKHTFPTERRYEDLEYAREMSAFFIKQLLRNGTTTALVFGTVHPQSVDALFEAASHINMRMIAGKVMMDRNAPDYLLDTAESSYHQSKELIERWHKNGRLLYAITPRFAPTSSPEQMAMAQRLKEEYPDTWVHTHLCENKDEIAWVKSLYPDHDGYLDVYHQYGLTGKNCVFAHCVHLEEKEWDRLSETKSSIAFCPTSNLYLGSGLFNLKKAWQKKVKVGMGTDIGAGTTFNMLQTLNEAYKVLQLQGYRLSAYEAFYLATLGGAKSLGLDDLIGNFLPGKESDFVVMEPTATPLQQLRYDNSVSLVDKLFVMMTLGDDRSIYRTYVDGRLVYERN
# B5: EcGuaD (Escherichia coli K-12; W101H) (protein)
# chain: MMSGEHTLKAVRGSFIDVTRTIDNPEEIASALRFIEDGLLLIKQGKVEWFGEWENGKHQIPDTIRVRDYRGKLIVPGFVDTHIHYPQSEMVGAYGEQLLEHLNKHTFPTERRYEDLEYAREMSAFFIKQLLRNGTTTALVFGTVHPQSVDALFEAASHINMRMIAGKVMMDRNAPDYLLDTAESSYHQSKELIERWHKNGRLLYAITPRFAPTSSPEQMAMAQRLKEEYPDTWVHTHLCENKDEIAWVKSLYPDHDGYLDVYHQYGLTGKNCVFAHCVHLEEKEWDRLSETKSSIAFCPTSNLYLGSGLFNLKKAWQKKVKVGMGTDIGAGTTFNMLQTLNEAYKVLQLQGYRLSAYEAFYLATLGGAKSLGLDDLIGNFLPGKEADFVVMEPTATPLQQLRYDNSVSLVDKLFVMMTLGDDRSIYRTYVDGRLVYERN
# How the values were obtained:
# Test in all cases: purified protein
# purified protein [1] = substrate: Nc1nc2nc[nH]c2c(=O)[nH]1; type: biochemical, Saccharomyces cerevisiae; conditions: 20 mM HEPES pH 7.5, 100 mM NaCl, 37 °C, zinc enzyme
# purified protein [2] = substrate: Nc1nc(N)nc(O)n1; type: biochemical, Escherichia coli; conditions: 20 mM HEPES pH 7.5, 100 mM NaCl, 37 °C, zinc enzyme
# purified protein [3] = substrate: Nc1nc2nc[nH]c2c(=O)[nH]1; type: biochemical, Escherichia coli; conditions: 20 mM HEPES pH 7.5, 100 mM NaCl, 37 °C
# purified protein [4] = substrate: Nc1nc2nn[nH]c2c(=O)[nH]1; type: biochemical, Escherichia coli; conditions: 20 mM HEPES pH 7.5, 100 mM NaCl, 37 °C, zinc enzyme
# purified protein [5] = substrate: Cn1c(N)nc2nc[nH]c2c1=O; type: biochemical, Escherichia coli; conditions: 20 mM HEPES pH 7.5, 100 mM NaCl, 37 °C, zinc enzyme
protein,measurement,setting,value
B1,Km,purified protein [1],61 ± 8 µM
B2,Km,purified protein [2],1200 ± 200 µM
same,Km,purified protein [3]; zinc enzyme,210 ± 40 µM
same,Km,purified protein [4],1000 ± 300 µM
same,Km,purified protein [5],930 ± 260 µM
B3,Km,purified protein [3],210 ± 60 µM
B4,Km,purified protein [3],140 ± 30 µM
B5,Km,purified protein [3],80 ± 10 µM
